{"source": "paper PMC9371698", "key": {"[1]": {"target": "canine E-cadherin ectodomain K14E mutant (canine)", "assay": "single-molecule atomic force microscopy; as −ab, but tip and coverslip incubated with 19A11 Fab and 150 nM free 19A11 Fab in the measurement buffer (+ab); pulling velocity 1 µm/s; pH 7.5, 10 mM Tris-HCl, 100 mM NaCl, 10 mM KCl, 2.5 mM CaCl2"}, "[2]": {"target": "canine E-cadherin ectodomain K14E mutant (canine)", "assay": "single-molecule atomic force microscopy; biotinylated canine Ecad on streptavidin on PEG tethers on both AFM tip and coverslip; without 19A11 (−ab); pulling velocity 1 µm/s; pH 7.5, 10 mM Tris-HCl, 100 mM NaCl, 10 mM KCl, 2.5 mM CaCl2"}}, "data": [{"substance": "canine E-cadherin ectodomain K14E mutant (domain or fragment)", "values": [{"measurement": "unbinding force (peak of a single Gaussian), with 150 nM 19A11", "setting": "[1]", "result": 40.3, "unit": "pN"}, {"measurement": "unbinding force (peak of a single Gaussian), without 19A11", "setting": "[2]", "result": 41.2, "unit": "pN"}]}]}
